This data set can be described thus: protein stability index of a GFP-peptide fusion (GPS, HEK-293T) (PSI 1-6); higher = more stable.
The mark [1] stands for this setting: treatment: DMSO, c terminus: a fixed tail appended.
[2] abbreviates: treatment: MLN4924 1 uM, 8 h, c terminus: a fixed tail appended.

± gives the standard deviation.
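Also: 24-mer peptide tiles fused after GFP, lentivirally expressed, FACS-sorted into six equal bins by GFP/DsRed ratio, decoded by Illumina sequencing, PSI is the read-weighted mean bin number.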

For TACSLPLCACLLGQKMLRHCGRT [PXN], the protein stability index was 3.03 ± 0.76 (treatment: DMSO, c terminus: native) and 2.28 ± 0.4 (treatment: MLN4924 1 uM, 8 h, c terminus: native).
As for TALGDKKSLEGDLEDLKDQIAQLE [LMNB1], the protein stability index runs as follows: under setting [1], 5.21 ± 0.24; under setting [2], 5.27 ± 0.24.
TAPRQEKHERTHEIIPINVNNNYE [SPRY1] registered a protein stability index under setting [1] of 4.68 ± 0.15 and a protein stability index under setting [2] of 4.61 ± 0.38.
TATDGGSPPLSTEAHFMLQVADIN [PCDHGA10]: the protein stability index runs as follows: under setting [1], 4.18 ± 0.089; under setting [2], 4.19 ± 0.16.
In the same order, the values of TCAPSVSYFKCVQKEVLPSMRKIV [CCND1] are 2.33 ± 0.13 and 2.35 ± 0.33.
In the same order, the values of TCLMISCYKGHKEIAQYLLEKGAD [FEM1C] are 2.29 ± 0.39 and 2.05 ± 0.27.
With TDAGKAFCMFYAVLGIPLTLVMFQ [KCNK9], the protein stability index amounted to 3.35 ± 0.4 under setting [1] and 3.06 ± 0.31 under setting [2].
In the same order, the values of TEKDLLEDGFGEHPFYHCLVAEVP [SAT1] are 3.35 ± 0.32 and 3.41 ± 0.37.
Regarding TEQGFGEDLEDLGAVAPPVSGDLT [NFE2L1], the protein stability index was determined as 5.388 ± 0.027 under setting [1] and 5.26 ± 0.55 under setting [2].
On the same counts, the results for TFAGDTCQVALNFANEEEAKKFRK [WASL] are 4.75 ± 0.12 and 4.73 ± 0.32.
As to TGPPCDRQWTVSDWGPCSGSCGQG [ADAMTSL2], the protein stability index by setting is: under setting [1], 3.67 ± 0.45; under setting [2], 3.51 ± 0.24.
On the same counts, the results for TGPQLPESLEDVAMYISQEEWGHQ [ZNF263] are 4.67 ± 0.1 and 4.52 ± 0.29.
On the same counts, the results for TGSTYNLSSGMAVAGMPTAYDLSS [CARM1] are 3.27 ± 0.21 and 3.42 ± 0.44.
In the same order, the values of TICYCPEKGTWTELEGDVAEPLAG [KLHL14] are 4.39 ± 0.18 and 4.59 ± 0.26.
On to TIGFGDYVALQTKGALQKKPLYVA [KCNK9], for which the protein stability index is, setting by setting: under setting [1], 2.29 ± 0.19; under setting [2], 2.63 ± 0.28.
As for TIKHPGGAGAEESELQAYIAQCQD [MCOLN1], the protein stability index reads like this: under setting [1], 5.27 ± 0.2; under setting [2], 5.23 ± 0.31.
In the same order, the values of TILLDGQRVKLKLWDTSGQGRFCT [RAB40A] are 2.21 ± 0.13 and 2.21 ± 0.23.
On to TKKLRLTKPSKSAALHIDLCKATS [INTS4], for which the protein stability index by setting is: under setting [1], 2.91 ± 0.17; under setting [2], 3.13 ± 0.22.
On the same counts, the results for TKPKTTAIQGISEKEKAEIEAKEA [DLC1] are 5.56 ± 0.25 and 5.35 ± 0.35.
On the same counts, the results for TLASVPPAATFGADDLVLTLSNPQ [ELF3] are 4.28 ± 0.21 and 4.25 ± 0.2.
On to TLGASSLREERGHPLHPRHRKAVH [C6orf223], for which the protein stability index stood at 4.54 ± 0.25 under setting [1] and 4.5 ± 0.098 under setting [2].
In the same order, the values of TLLLELEQDSGVQVEGLTVQYLGQ [ADAMTS4] are 2.87 ± 0.72 and 3.23 ± 0.38.
On the same counts, the results for TLLVCGKKAYDYFQAKKIPIVSSL [PDZK1] are 2.6 ± 0.75 and 2.58 ± 0.13.
In the same order, the values of TLNVDRKEKCVSLPDCCHGSELRD [DLC1] are 4.15 ± 0.1 and 4.26 ± 0.15.
For the sequence TLPVLEASSWKKQVSHDFLETRFK [FBXO34], the protein stability index under setting [1] worked out at 3.16 ± 0.66 and the protein stability index under setting [2] was determined as 3.1 ± 0.41.
Take TPAKSLDKFIEDYLLPDTCFRMQI [OAS1]: the protein stability index is 2.51 ± 0.51 under setting [1] and 2.65 ± 0.48 under setting [2].
In the same order, the values of TPEPDTCHELLGHVPLLAEPSFAQ [TPH1] are 3.96 ± 0.27 and 3.91 ± 0.2.
In the same order, the values of TPETRAKFTQDNLCRAQRERLASA [TEKT4] are 4.17 ± 0.23 and 4.35 ± 0.35.
TPGGRGDMKYGIYAVENEHMNRLQ [VTI1B]: the protein stability index was determined as 3.69 ± 0.33 under setting [1] and 3.55 ± 0.63 under setting [2].

These data come from the supplement of paper PMC10567573.
